Assay results from US20250276077A1, “EPHA2 ANTIBODIES” (Immunome, Inc., priority 2022, published 2025).

Biological target: T1, human 4-1BB (Homo sapiens, UniProt Q07011)
T1 construct: host or cells: 4-1BB reporter cells of the Promega bioassay, alone or co-cultured with tumor cells (A549, MDA-MB-231, CT26, PC3, SKOV3)
Assay: 4-1BB activation, inducible reporter cell system with or without tumor cells
Assay type: cell-based
Conditions: reporter cells alone or co-cultured with A549 tumor cells; 5 hours
Description: After confirming that they retained the ability to bind to PC3 cells, the EphA2-4-1BB bispecific antibodies were assayed for their ability to activate human 4-1BB using an inducible reporter cell system (Promega cat JA2351). […] reporter cells were either cultured alone with the EphA2-4-1BB bispecific antibodies or co-cultured with A549 tumor cells that had been treated with the EphA2-4-1BB bispecific antibodies. The 4-1BB antibody Urelumab (AB-009811) was included as a non-tumor targeting control. After 5 hours of culture, 4-1BB activation was determined from the reporter cells by measuring bioluminescence output.
The activation assay was repeated using MDA-MB-231, CT26, or PC3 tumor cells. […] FIG. 19A-D.
Constructs that comprise AB-008873 fused with h41BBL (THD)3-2 were generated and assayed for the ability to activate 4-1BB for tumor cell lines A549, MDA-MB231, SKOV3, and PC3, as described above for the EphA2-4-1BB bispecific antibodies. AB-009811 was included as a positive control and 5554-41BBL (THD) 3-10 or 5554-41BBL (THD) 3-2 was used as a negative control. […] FIG. 19E.

T1 sequence (Q07011 24-255): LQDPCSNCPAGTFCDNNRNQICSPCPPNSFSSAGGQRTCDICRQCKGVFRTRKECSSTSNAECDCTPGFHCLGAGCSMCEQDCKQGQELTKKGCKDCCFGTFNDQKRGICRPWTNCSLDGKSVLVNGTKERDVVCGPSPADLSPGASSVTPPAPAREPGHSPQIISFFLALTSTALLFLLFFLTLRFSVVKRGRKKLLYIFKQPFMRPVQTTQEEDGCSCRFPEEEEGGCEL

Urelumab: 4-1BB antibody included as a non-tumor targeting control
4-1BB activation with and without tumor cells: activated 4-1BB with us without the presence of tumor cells
